Data taken from the supplement of paper PMC12042874.
± gives the uncertainty stated by the source.

Test: amyloid nucleation score (Sup35N fusion, yeast selection) (log enrichment); library NNK2; higher = more nucleation; inactive = no reads after selection
How it was run: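 Plasmid inserts were Illumina-sequenced at input and output from psi-negative yeast expressing Sup35N fused to peptides of 20 random codons. The yeast were induced with 100 μM copper sulfate for 24 hours and grown 7 days at 30°C on medium lacking adenine and uracil, and sequences with under 100 input reads were excluded. Nucleation score is the DiMSum log enrichment of output over input reads, centred on the mode score of non-aggregating sequences.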

Substance | amyloid nucleation score
AFTACRYMVSPFFSLMFSTS | 0.265 ± 1.1
LYSCWVSCLEGRLVCGPLTH | -0.65 ± 0.39
VDYGQRAPTCITSHYHLNRC | 0.227 ± 1.1
LFYSPSVGCWFLFSYGPHIG | inactive
GFWVDQNSDPNWVSQAPDFM | inactive
LALSRYFGL | -0.909 ± 0.54
YHEVFLTLSIEWRMMLWVG | -0.318 ± 0.28
DRNYVQNSSTKMHYWASFLT | 1.71 ± 0.17
RHQYETKYRPYRVIPLQRMV | 0.277 ± 0.46
RVVFKHENLDMWCWMS | 1.47 ± 0.11
NINTSYHNSPCPQYTLASMW | -0.231 ± 1
NRNLSYHT | 0.633 ± 0.8
QDNRYPLFVLSTLLSLIFLL | inactive
FVFELGKWHCELFWYELCLS | inactive
IYRSVTRKSERMCTVVGQVV | -0.279 ± 0.48
TGFKCSLLTY | -0.91 ± 0.62
VWPLCGCAWRWSGKWGGTRW | 6.41 ± 0.077
ILLGYIISR | -0.636 ± 0.79
SALSGRYAKTLRNGHGLYQE | inactive
DFALALVYTSMCLVVLYSML | 4.4 ± 0.063
FRYCAGLMTYRLEFG | 2.49 ± 0.068
NKGVCDEVSVSSISVAIF | -0.093 ± 0.63

Substance | amyloid nucleation score
NTSFFDGTFLY | 0.598 ± 0.57
SCCRGEF | -0.235 ± 0.61
VFFRLMKPNFGLP | 0.199 ± 1.1
MSVVVLWHGLCLQLYMCDA | -0.23 ± 0.65
VTVMTRLDFSTRSSATKPHG | 5.667 ± 0.044
NQFLMVWSDIDVRKDVRFLH | -0.977 ± 0.48
SGDHDGHEMRILRWSMLRYG | 1.56 ± 0.11
RFNWFFRHV | 0.524 ± 0.81
TMHYYLWDSN | 4.88 ± 0.1
RSSLIIALCWFR | 5.54 ± 0.059
GLTLMWALFGSVYGLRSGMG | 0.89 ± 0.28
INVYRPFYIVRHY | 5.101 ± 0.044
YISRILYHNGKSDRDGQRDY | -0.119 ± 0.65
TPVWVGVSLVPPIAPTTWIN | 0.288 ± 0.28
PDFSDFITHLIGFRSMGTGG | -0.694 ± 1.1
LGTSWHHRAKE | 3.31 ± 0.086
LFWFLCNVMERYRWNVDAYR | -0.625 ± 0.45
SFITCRFNRDCFLLQFSWYN | inactive
NPFLFAYANYLLLMCIGRVY | -0.044 ± 0.61
HTDCYLWLKLYSTLGILFVF | inactive
SLSRLVLECNGKSVRHEKM | 0.393 ± 0.32
WSLKKLITDRFGSSCSAALH | inactive

Substance | amyloid nucleation score
ICYFLKGAFRR | -0.493 ± 0.78
FTDCHWSDLLRSFVAWYDIV | 0.918 ± 0.58
RTLPFWWLNLFWFLNNMDTF | -1.8 ± 1.1
ISTIWFRLQTGARKTRLLFD | -0.735 ± 0.79
VTYDCL | inactive
MSWVVIQFTINIFRHKTF | 3.47 ± 0.11
LFVALVGDLFCCWVCGSYGV | -1.43 ± 0.78
QKACWNPGQRLLVTDLHYQP | 0.27 ± 0.64
MCGNWLD | 3.05 ± 0.055
SKMYMPAVWMDGPSPQTTMW | 0.73 ± 0.37
TRFFTSLK | -0.402 ± 0.61
DVVILMF | 0.639 ± 0.5
ALRVLFLVVWSEHDDCYCGG | 0.665 ± 0.42
FILSQWYKGSECTTCRRLWG | -0.318 ± 0.4
PPTTT | 0.621 ± 0.43
RLELVTVVSVSMHDLRHRRR | 4.75 ± 0.071
SVYGQRNTIIFEFSWMRTAS | 7.492 ± 0.04
NFLCVSDKGCDCVESKLG | 8.145 ± 0.033
YFIGFSSSMNFGYFMRVYRI | inactive
SIVNFWNMIVE | 3.32 ± 0.15
NAYFMLEILRTKWTQDSTER | -0.99 ± 0.78
MFVGSGRDCTVTVPFRQPTG | 1.86 ± 0.29

Substance | amyloid nucleation score
FITQVHSYWDSISTVTSDIL | inactive
DTSSYKTYDRLHQLYRNELR | 0.709 ± 0.23
GIFGMC | 0.366 ± 0.56
RVNCYYSFRS | 6.026 ± 0.038
MLDGTSCICVVIEA | -0.035 ± 0.21
RGLAES | -0.2 ± 0.24
EEMYRSIARNVVVLNRYCES | -0.468 ± 0.26
VSWTPWESIFSGVMV | -0.568 ± 0.61
TWVNYIIRKVRLVTIRLYVY | -0.011 ± 0.65
HLSRPGDAYTVMFT | 5.845 ± 0.036
HSSIIKSVAWAFNYDA | 0.159 ± 0.42
NTFFQYDPRHRGHTAGWCGE | 0.07 ± 0.54
VYYLCVWF | -1.18 ± 0.41
LNVRLFSVFFSHTSSSHSEN | 3.21 ± 0.061
ISSICFRNRDNFFLRAFGIG | inactive
MFFNLAI | inactive
LVDRPGFSVNVD | -0.191 ± 0.35
YKISDRVALISYPNFAIVWT | -2.25 ± 0.78
SSNYYVLCFTMPYWFYSLV | 1.02 ± 0.33
LYREDGNMSDH | 1.82 ± 0.28
